Laboratory results published in publication doi:10.1101/2025.03.24.645041 (2025).

B1: MBP-Vac17(H) [budding yeast] / Strep II-Myo2(1150–1567) [budding yeast] (parent complex)
chain 1: MATQALEDITERLLIRSQEAILQLDLWIQRQQRSSICQTTDQESLDKLSQQYNQYMSQLNSLYVRSESVRDKLSKEQQRRLITEDNEHQRIEDLVREFQDITLRLNELA
chain 2: GVNATQINEELYRLLEDTEILNQEITEGLLKGFEVPDAGVAIQLSKRDVVYPARILIIVLSEMWRFGLTKQSESFLAQVLTTIQKVVTQLKGNDLIPSGVFWLANVRELYSFVVFALNSILTEETFKNGMTDEEYKEYVSLVTELKDDFEALSYNIYNIWLKKLQKQLQKKAINAVVISESLPGFSAGETSGFLNKIFANTEEYTMDDILTFFNSIYWCMKSFHIENEVFHAVVTTLLNYVDAICFNELIMKRNFLSWKRGLQLNYNVTRLEEWCKTHGLTDGTECLQHLIQTAKLLQVRKYTIEDIDILRGICYSLTPAQLQKLISQYQVADYESPIPQEILRYVADIVKKEAALSSSGNDSKGHEHSSSIFITPETGPFTDPFSLIKTRKFDQVEAYIPAWLSLPSTKRIVDLVAQ

Variants of: B1
Test: pull-down; Strep II-Myo2 tail co-expressed with MBP-Vac17(H) and immobilized on Strep-Tactin beads; normalized to Vac17 and Myo2 input levels; parent: 1; read off a plot

First: chain 2 E189R, chain 2 K259A, chain 2 V299A
Second: chain 2 K259A, chain 2 R300E
The ratio to parent of the first is lower: about 0.4 for the first, about 0.59 for the second.
